The text below walks through data of article PMC3869713.

The target of series [1] is CHK2 (UniProt O96017). In words: F-EMSA. As to conditions: 25 mM Tris-HCl pH 8.0, 10 mM NaCl, 25 mM KCl, 5 mM MgCl2, 0.01% IGEPAL CA630, 10 ug/ml yeast tRNA, SUPERase-In; 2 nM RNA, room temperature 2 h; F-EMSA on ….
Series [2] deals with CHK2 (UniProt O96017). The series can be described thus: fluorescence polarization. The note with it: 25 mM Tris-HCl pH 8.0, 10 mM NaCl, 25 mM KCl, 5 mM MgCl2, 0.01% IGEPAL CA630, 10 ug/ml yeast tRNA, SUPERase-In; 2 nM RNA, room temperature 2 h; F-EMSA on …. Background: In fluorescence polarisation assays a small probe gives low polarisation when free and higher when bound to something large.

Sequence of CHK2 (O96017 whole entry): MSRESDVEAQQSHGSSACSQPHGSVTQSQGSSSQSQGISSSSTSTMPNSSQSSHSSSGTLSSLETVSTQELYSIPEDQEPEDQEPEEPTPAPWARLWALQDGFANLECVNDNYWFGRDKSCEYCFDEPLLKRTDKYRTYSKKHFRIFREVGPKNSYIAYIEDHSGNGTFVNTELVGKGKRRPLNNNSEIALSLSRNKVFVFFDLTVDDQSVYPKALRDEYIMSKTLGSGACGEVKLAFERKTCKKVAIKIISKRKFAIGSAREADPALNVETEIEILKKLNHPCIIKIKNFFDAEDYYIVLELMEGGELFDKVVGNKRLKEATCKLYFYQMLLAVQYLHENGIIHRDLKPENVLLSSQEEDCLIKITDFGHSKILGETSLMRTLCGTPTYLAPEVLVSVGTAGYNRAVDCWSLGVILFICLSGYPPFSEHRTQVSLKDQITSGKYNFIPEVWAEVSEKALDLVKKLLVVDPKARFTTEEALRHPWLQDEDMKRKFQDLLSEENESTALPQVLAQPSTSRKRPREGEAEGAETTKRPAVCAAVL

A word on the Kd: it is the concentration at which binding is half-saturated. Read a high Kd as weaker binding. For “GGGAAUGGAUCCACAUCUACGAAUUCGAUCGGUUCCAACGCUCUGUCGCCUAAGUGAACAGAUGAAGAAAAAAUAGCCCAAUAAGAGGCAACAAUCUUUCACUGCAGACUUGACGAAGCUU [C6M1]”, the Kd with CHK2 [1] came to 180 nM; with CHK2 [2], 299 nM.
